Consider 13 substances from article doi:10.1101/2023.11.30.569340.

The first experiment addresses EEEV E2 domain B (Eastern equine encephalitis virus). The experiment in a line: BLI. (In BLI a coated tip is dipped into the sample, and binding shifts an interference pattern.)
The Kd is the constant that tells how readily two partners part at equilibrium. On to VLDLR LA1-8-Fc (Fc fusion), for which the Kd stood at 1400 nM.

A further experiment has as its target EEEV PE6 virus-like particle (VLP) (Eastern equine encephalitis virus, strain PE6). Briefly: BLI.
On to S. vulgaris VLDLR LA1-8-Fc (Fc fusion), for which the equilibrium dissociation constant (Kd) came to 11 nM.

As for VLDLR LA3-6-Fc (Fc fusion), the Kd was 71.5 nM.

Take VLDLR LA1-2-Fc (Fc fusion): the Kd amounted to 505 nM.

In turn, VLDLR LA1-3-Fc (Fc fusion) gave a Kd of 363 nM.

In turn, VLDLR LA2-4-Fc (Fc fusion) yielded a Kd of 1100 nM.

VLDLR LA2-5-Fc (Fc fusion) gave a Kd of 42.5 nM. Against the preceding substance, the Kd is about 26-fold lower.

Turning to VLDLR LA3-4-Fc (Fc fusion), the Kd worked out at 3900 nM.

Regarding VLDLR LA2-3-Fc (Fc fusion), the Kd worked out at 1800 nM. This Kd lies about 2.2-fold lower than the previous one.

As to VLDLR LA3-5-Fc (Fc fusion), the Kd was found to be 32.3 nM.

Substance VLDLR LA1-8-Fc (Fc fusion) registered a Kd of 2.9 nM.

The substance VLDLR LA5-6-Fc (Fc fusion) had a Kd of 4200 nM.

VLDLR LA4-5-Fc (Fc fusion) showed a Kd of 11900 nM. This Kd is about 2.8-fold higher than that of the substance before.

On to VLDLR LA4-6-Fc (Fc fusion), for which the Kd was 2300 nM.
